These results are taken from patent US20040170969.

This data set deals with recombinant MOB expressed as a GST-fusion protein.

Sequence of FLAG-Ndr (cells treated with okadaic acid) (chain, as listed by the source): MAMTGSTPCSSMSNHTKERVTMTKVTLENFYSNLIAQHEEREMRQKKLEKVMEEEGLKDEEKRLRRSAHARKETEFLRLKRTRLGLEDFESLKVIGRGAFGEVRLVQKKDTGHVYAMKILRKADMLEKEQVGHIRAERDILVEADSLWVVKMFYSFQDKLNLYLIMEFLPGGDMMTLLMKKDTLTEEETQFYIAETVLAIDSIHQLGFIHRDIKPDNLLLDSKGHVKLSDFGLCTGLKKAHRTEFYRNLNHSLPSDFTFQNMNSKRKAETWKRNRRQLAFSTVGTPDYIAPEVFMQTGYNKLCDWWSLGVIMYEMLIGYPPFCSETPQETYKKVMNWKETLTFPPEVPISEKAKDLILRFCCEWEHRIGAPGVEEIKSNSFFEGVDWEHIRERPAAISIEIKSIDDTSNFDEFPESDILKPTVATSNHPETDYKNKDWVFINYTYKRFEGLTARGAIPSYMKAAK

Take “FLAG-Ndr (cells treated with okadaic acid)”: the “phosphorylation of GST-MOB by Ndr (FIG. 19)” value is “recombinant MOB expressed as a GST-fusion protein is specifically phosphorylated by active Ndr”.
